According to the supplement of paper PMC10567573:

B1: MIA2 (parent)
chain: SVIEPVQESSFRSRKIAVEDENDL

Variants of: B1
Assay: protein stability index of a GFP-peptide fusion (GPS, HEK-293T) (PSI 1-6); higher = more stable
Conditions: c terminus: a fixed tail appended
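Note: lentivirally expressed fusions sorted by FACS into six bins by GFP to DsRed ratio, PSI derived from sequencing read proportions per bin multiplied by bin number.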

Protein stability index: each site, then its substitutions
V18: S 5.69 | I 5.3 | T 4.94 | M 4.43 | W 5.16 | E 5.53 | C 5.03 | H 5.36 | P 5.32 | G 5.18 | L 4.56 | Q 5.15 | D 4.18 | A 5.35 | F 5.36
S13: Y 5.12 | N 5.61 | I 5.11 | L 5.19 | E 5.3 | V 5.23 | T 5.66 | G 5.44 | Q 5.03 | W 4.72 | K 5.18 | F 5.03 | P 5.18 | H 5.25 | C 5.05 | R 5.53 | M 4.86 | D 5.05 | A 5.65
I16: E 5.19 | S 5.45 | A 4.72 | D 5.68 | Y 4.98 | L 5.13 | P 5.04 | W 4.66 | V 5.41 | G 5.42 | N 5.6 | H 4.28 | F 5.12 | K 5.01 | T 5.37 | Q 5.15 | M 5.42 | R 5.22 | C 4.17
E21: I 4.46 | Q 5.29 | K 5.05 | P 4.42 | T 5.19 | F 4.31 | N 4.74 | M 4.32 | C 4.32 | G 5.27 | R 4.7 | W 3.85 | V 4.9 | D 5.38 | Y 4.47 | L 4.62 | H 4.63 | S 5.23 | A 4.83
E8: A 5.28 | I 4.83 | Q 5.1 | S 4.42 | Y 4.49 | H 5.02 | F 4.63 | T 4.52 | D 4.48 | C 4.97 | M 4.58 | L 5.02 | P 5.27 | N 5.64 | K 4.78 | R 4.79 | V 5.14 | G 5.28 | W 4.66
F11: C 4.9 | M 5.19 | L 5.46 | D 5.92 | P 5.08 | I 5.15 | A 4.79 | Q 4.71 | H 5.37 | V 5.16 | Y 5.26 | R 5.67 | W 5.44 | S 5.26 | K 5.4 | G 5.28 | E 5.84 | N 5.62 | T 5.86
K15: D 5.52 | Q 5.71 | V 5.43 | A 5.63 | C 5.2 | H 5.36 | G 4.85 | P 5.65 | F 5.03 | S 5.61 | M 5.11 | Y 5.29 | L 5.14 | T 5.11 | N 5.67 | I 5.05 | E 5.69 | W 4.44 | R 5.43
A17: F 5.05 | L 4.97 | K 5.59 | T 5.09 | R 4.77 | P 5.66 | I 5.05 | M 5.55 | G 5.14 | C 4.81 | N 5.45 | D 5.43 | E 5.68 | H 5.53 | Y 4.87 | Q 5.44 | V 5.3 | S 4.86 | W 4.92
Q7: K 4.98 | L 5.29 | T 5.32 | G 5.13 | V 5.28 | E 5.25 | I 4.93 | Y 5.21 | F 4.46 | H 5.34 | M 5.04 | N 4.82 | S 5.46 | A 4.21 | D 5.25 | W 5.13 | P 5.49 | R 4.92 | C 3.93
